Here are results for 2 substances from US20220288176.

Read-outs that look alike come from different tables or passages of the source.

One series deals with RIG-I (Homo sapiens). To be noted: immunofluorescence co-localization with RIG-I and K63-polyubiquitin in HeLa.
The test system of a further series is YTHDF2 (Homo sapiens). To be noted: co-localization with RIG-I and YTHDF2 in HeLa.

For the substance FITC-circFOREIGN, the activity in the series with RIG-I (Homo sapiens) came out at 85.5%; with YTHDF2 (Homo sapiens), 33.8%. In the series with YTHDF2 (Homo sapiens) (10% m6A random), 10% m6A circFOREIGN gave an activity of 65.3%.
